Reference: publication PMC5454392, “Selective BET bromodomain inhibition as an antifungal therapeutic strategy” (Nature Communications, 2017)
Numbered stars: 1 amine (or outer) side, 2 acyl side, 3 side chain; on linkers, the order of the positions; unused ones are H or OH. Square brackets hold non-standard residues; d marks the D form. Ends that are not written are not given here. Arg(Me2a) = CN(C)C(=N)NCCC[C@H](N)C(=O)O; Kac = CC(=O)NCCCC[C@H](N[*:1])C(=O)[*:2]; Lys(Me3) = C[N+](C)(C)CCCC[C@H](N)C(=O)O; Arg(Me2s) = CN=C(NC)NCCC[C@H](N)C(=O)O; pT = C[C@@H](OP(=O)(O)O)[C@H](N)C(=O)O; Lys(Me2) = CN(C)CCCC[C@H](N)C(=O)O; pS = N[C@@H](COP(=O)(O)O)C(=O)O; Lys(Me) = CNCCCC[C@H](N)C(=O)O; Me2a = not defined here; me2a = not defined here

T1: CaBdf1 BD2 (GST-tagged, wild-type) (Candida albicans (strain SC5314 / ATCC …, UniProt Q5A4W8))
T1 chain: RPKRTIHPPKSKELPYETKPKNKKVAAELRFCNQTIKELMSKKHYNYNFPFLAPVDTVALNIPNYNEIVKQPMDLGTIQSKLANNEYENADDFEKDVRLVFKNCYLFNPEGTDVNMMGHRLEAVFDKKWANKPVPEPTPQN

T2: CaBdf1 BD1 (GST-tagged, wild-type) (Candida albicans (strain SC5314 / ATCC …, UniProt Q5A4W8))
T2 chain: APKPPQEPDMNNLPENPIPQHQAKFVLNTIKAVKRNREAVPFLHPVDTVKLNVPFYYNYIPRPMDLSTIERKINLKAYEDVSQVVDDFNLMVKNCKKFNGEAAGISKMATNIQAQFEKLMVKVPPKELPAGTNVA

B1: c-myc tag (peptide)
chain: EQKLISEEDLA
modifications: histone peptide post-translational modifications (acetyl, methyl, phospho, citrulline) listed in columns 4-7 and embedded in the sequence text; N-terminus free or acetylated in column 8

Experiments:
[1] = biological target: T1, CaBdf1 BD2 (GST-tagged, wild-type); experiment: histone peptide array (Active Motif MODified), 1 uM GST-tagged bromodomain, anti-GST detection, normalized mean intensity
[2] = biological target: T2, CaBdf1 BD1 (GST-tagged, wild-type); experiment: as above

Binder	binding score [1]	binding score [2]
ARTKQTARKSTGGKAPRKQ (A R T K Q T A Rme2s K S T G G K A P R K Q)	0.00148	0.00218
SGRGKGGKGLGKGGAKRHR (S G R G K G G K G L G Kac G G A Kac R H R)	0.0248	0.0743
SGRGK(Ac)QGGK(Ac)ARAK(Ac)AKSRSS	0.00888	0.0591
A[Arg(Me2s)]T[Kac]QTA[Arg(Me2s)][Lys(Me2)]STGGKAPRKQ	0.00666	0.00725
SGRGKGGKGLGKGGAKRHR (pS G Rme2s G Kac G G K G L G K G G A K R H R)	0.00555	0.0131
SGRGKGGKGLGKGGAKRHR (S G R G Kac G G Kac G L G Kac G G A Kac R H R)	0.902	0.471
SGRGKQGGK(Ac)ARAK(Ac)AKSRSS	0.0481	0.178
ARTKQTARKSTGGKAPRKQ (A R T K Q T A Rme2s Kme3 pS T G G K A P R K Q)	0.00333	0.00508
AR(me2s)TK(Me)QTAR(me2s)K(me3)STGGKAPRKQ	0.00629	0.0029
SGRGKGGKGLGKGGAKRHR (S G Rme2s G Kac G G K G L G K G G A K R H R)	0.00555	0.0225
PRKQLATKAARKSAPATGG (P R K Q L A T K A A R Kme2 S A P A T G G)	0.00666	0.00254
SGRGKGGKGLGKGGAKRHR (pS G Rme2a G Kac G G Kac G L G K G G A K R H R)	0.0396	0.0312
ARTKQTARKSTGGKAPRKQ (A R T Kac Q T A Rme2a Kme1 S T G G K A P R K Q)	0.00555	0.00834
ARTKQTARKSTGGKAPRKQ (A Rme2s T Kme2 Q T A Rme2s Kme2 S T G G K A P R K Q)	0.00407	0.00435
ARTK(Ac)QTARKSTGGKAPRKQ	0.00222	0.00363
PDPAK(Ac)SAPAPKK(Ac)GSKKAVT	0.00555	0.017
SGRGKGGKGLGKGGAKRHR (S G R G Kac G G K G L G K G G A K R H R)	0.0241	0.0185
A[Arg(Me2s)]T[Lys(Me2)]QTA[Arg(Me2a)][Lys(Me)]STGGKAPRKQ	0.0037	0.00544
PRKQLATKAAR(Me2a)K(Me3)[pS]APATGG (reading uncertain)	0.00296	0.00218
B1	1	1.01
AR[pT]KQTARKSTGGKAPRKQ	0.00259	0
RKSAPATGGVKKPHRYRPG (R K S A P A T G G V Kme1 K P H R Y R P G) [H3 26-45]	0.00481	0.00616
PRKQLATKAARK(Me)SAPATGG	0.00333	0.00798
SGRGKGGKGLGKGGAKRHR (S G R G Kac G G Kac G L G K G G A K R H R)	0.0326	0.0294
PRKQLATKAA[Arg(Me2s)]K(Ac)[pS]APATGG	0.00629	0.00145

Binder	binding score [1]	binding score [2]
A[Arg(Me2s)][pT]K(Ac)QTARKSTGGKAPRKQ	0.00333	0.00761
ARTKQTARKSTGGKAPRKQ (A R T K Q T A R Kme1 S pT G G K A P R K Q)	0.0037	0.00326
ARTKQTARKSTGGKAPRKQ (A Rme2s T Kme2 Q T A Rme2s K S T G G K A P R K Q)	0.00629	0.00181
PRKQLATKAAR(Me2s)K(Me2)[pS]APATGG	0.00074	0.00363
PRKQLATKAARK(Ac)SAPATGG	0.0307	0.0138
ARTKQTARKSTGGKAPRKQ (A R T K Q T A R Kme2 pS T G G K A P R K Q)	0.00333	0.00326
PDPAKSAPAPKKGSKKAVT (not fully specified)	0.00074	0.00435
ARTK(Me)QTARKSTGGKAPRKQ	0.00185	0.000725
ARTKQTARKSTGGKAPRKQ (A R T K Q T A R Kme3 S T G G K A P R K Q)	0.00222	0.0029
[pS]GRGKQGGKARAKAKSRSS	0.00592	0.0131
ARTKQTARKSTGGKAPRKQ (A R T K Q T A R Kme3 S pT G G K A P R K Q)	0.0037	0.00363
ARTKQTARKSTGGKAPRKQ (A Rme2a T Kme1 Q T A Rme2s Kme3 S T G G K A P R K Q)	0.00629	0.00471
ART[Kac]QTA[Arg(Me2a)][Lys(Me2)]STGGKAPRKQ	0.00555	0.00761
SGRGKGGKGLGKGGAKRHR (S G R G K G G Kac G L G Kac G G A K R H R)	0.0418	0.0707
ARTKQTARKSTGGKAPRKQ (A Rme2a T Kme3 Q T A Rme2s Kme1 S T G G K A P R K Q)	0.00407	0.00326
PDPAKSAPAPKKGSK(Ac)KAVT	0.00481	0.0199
[pS]GRGK(Ac)QGGKARAK(Ac)AKSRSS	0.0148	0.0964
PRKQLATKAARKSAPATGG (P R K Q L A T K A A Rme2a Kme2 S A P A T G G)	0.00555	0.00363
ARTKQTARKSTGGKAPRKQ (A Rme2a T Kme2 Q T A Rme2a Kme2 S T G G K A P R K Q)	0.00555	0.00399
ARTK(Me)QTAR(me2a)K(Me)STGGKAPRKQ (reading uncertain)	0.00407	0.00508
AR(Me2a)TK(Me2)QTARKSTGGKAPRKQ (reading uncertain)	0.0037	0.00109
PDPAK(Ac)SAPAPKK(Ac)G[pS]K(Ac)KAVT	0.232	0.0982
ARTKQTARKSTGGKAPRKQ (A R T Kme1 Q T A Rme2a Kme3 S T G G K A P R K Q)	0.00333	0.00254
AR[pT]K(Me)QTARKSTGGKAPRKQ	0.00296	0.00471
A[Arg(Me2a)]TK(Ac)QTA[Arg(Me2s)][Lys(Me3)]STGGKAPRKQ	0.0122	0.00653
